First the molecules themselves.
B1: OmpT protease variant OmpT D97V (protein)
chain: STETLSFTPDNINADISLGTLSGKTKERVYLAEEGGRKVSQLDWKFNNAAIIKGAINWDLMPQISIGAAGWTTLGSRGGNMVDQDWMDSSNPGTWTVESRHPDTQLNYANEFDLNIKGWLLNEPNYRLGLMAGYQESRYSFTARGGSYIYSSEEGFRDDIGSFPNGERAIGYKQRFKMPYIGLTGSYRYEDFELGGTFKYSGWVESSDNDEHYDPGKRITYRSKVKDQNYYSVAVNAGYYVTPNAKVYVEGAWNRVTNKKGNTSLYDHNNNTSDYSKNGAGIENYNFITTAGLKYTF
B2: OmpT protease variant OmpT D97P (protein)
chain: B1 chain with V97P
B3: OmpT protease variant OmpT D97W (protein)
chain: B1 chain with V97W
B4: OmpT protease variant OmpT D97K (protein)
chain: B1 chain with V97K
B5: OmpT protease variant OmpT D97G (protein)
chain: B1 chain with V97G
B6: OmpT protease variant OmpT D97Y (protein)
chain: B1 chain with V97Y
B7: OmpT protease variant OmpT D97I (protein)
chain: B1 chain with V97I

Where a chain is given by its changes, count along the chain named. In names and notes the source's numbering stands.

Chain of fusion protein PRD (chain, as listed by the source): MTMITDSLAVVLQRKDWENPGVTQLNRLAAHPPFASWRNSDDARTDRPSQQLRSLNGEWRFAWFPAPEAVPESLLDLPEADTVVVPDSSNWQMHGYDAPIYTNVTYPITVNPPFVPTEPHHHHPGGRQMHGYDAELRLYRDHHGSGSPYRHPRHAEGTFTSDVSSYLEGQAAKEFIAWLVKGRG
Chain of fusion protein PRY (chain, as listed by the source): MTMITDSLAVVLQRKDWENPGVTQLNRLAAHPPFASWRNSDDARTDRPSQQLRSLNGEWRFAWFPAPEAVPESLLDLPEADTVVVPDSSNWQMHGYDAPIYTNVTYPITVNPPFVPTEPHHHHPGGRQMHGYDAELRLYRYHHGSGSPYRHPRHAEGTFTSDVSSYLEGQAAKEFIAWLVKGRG
Chain of fusion protein PRH (chain, as listed by the source): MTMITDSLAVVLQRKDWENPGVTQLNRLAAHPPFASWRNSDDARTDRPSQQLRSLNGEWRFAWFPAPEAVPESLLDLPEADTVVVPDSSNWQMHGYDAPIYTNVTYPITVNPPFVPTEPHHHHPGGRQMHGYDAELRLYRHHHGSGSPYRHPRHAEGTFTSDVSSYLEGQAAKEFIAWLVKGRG
Chain of fusion protein PRK (chain, as listed by the source): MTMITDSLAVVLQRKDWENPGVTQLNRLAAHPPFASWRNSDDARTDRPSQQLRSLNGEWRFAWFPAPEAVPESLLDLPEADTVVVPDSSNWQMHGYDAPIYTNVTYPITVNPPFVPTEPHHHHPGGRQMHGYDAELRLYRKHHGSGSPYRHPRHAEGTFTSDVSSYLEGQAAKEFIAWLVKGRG
Chain of fusion protein PRS (chain, as listed by the source): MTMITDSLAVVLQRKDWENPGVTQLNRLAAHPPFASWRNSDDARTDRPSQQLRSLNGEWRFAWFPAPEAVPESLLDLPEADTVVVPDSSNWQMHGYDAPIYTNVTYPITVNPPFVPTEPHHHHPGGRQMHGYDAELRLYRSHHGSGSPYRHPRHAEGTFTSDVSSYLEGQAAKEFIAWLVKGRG

The first series concerns the target fusion protein PRD.
Turning to B1, the relative cleavage efficiency result is “less than 3.0%”.

Take B2: the relative cleavage efficiency result is “less than 3.0%”.

With B3, the relative cleavage efficiency entry is listed as “less than 3.0%”.

As to B4, the relative cleavage efficiency result is reported as “less than 3.0%”.

On to B5, for which the relative cleavage efficiency entry is “less than 3.0%”.

Turning to B6, the relative cleavage efficiency result was “less than 3.0%”.

For the protein B7, the relative cleavage efficiency entry is on record as “less than 3.0%”.

A further series deals with fusion protein PRQ.
Chain of fusion protein PRQ (chain, as listed by the source): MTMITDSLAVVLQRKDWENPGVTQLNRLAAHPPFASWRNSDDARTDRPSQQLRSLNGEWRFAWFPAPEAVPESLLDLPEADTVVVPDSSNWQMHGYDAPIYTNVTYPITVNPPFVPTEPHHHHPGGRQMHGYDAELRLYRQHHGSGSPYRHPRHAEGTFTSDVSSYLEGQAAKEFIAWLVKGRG
Take B1: the relative cleavage efficiency result is recorded as “less than 3.0%”.

For B2, the relative cleavage efficiency entry is listed as “less than 3.0%”.

For the protein B3, the relative cleavage efficiency entry is “less than 3.0%”.

B4: the relative cleavage efficiency result is recorded as “less than 3.0%”.

Take B5: the relative cleavage efficiency result was “less than 3.0%”.

With B6, the relative cleavage efficiency entry is “less than 3.0%”.

With B7, the relative cleavage efficiency result was “less than 3.0%”.

The next series has as its target fusion protein PRH.
With B1, the relative cleavage efficiency result is “less than 3.0%”.

B2: the relative cleavage efficiency result is “less than 3.0%”.

With B3, the relative cleavage efficiency result was “less than 3.0%”.

In the case of B4, the relative cleavage efficiency result is on record as “less than 3.0%”.

On to B5, for which the relative cleavage efficiency entry is listed as “less than 3.0%”.

For B6, the relative cleavage efficiency entry is “less than 3.0%”.

As to B7, the relative cleavage efficiency entry is “less than 3.0%”.

In another series the target is fusion protein PRA.
Chain of fusion protein PRA (chain, as listed by the source): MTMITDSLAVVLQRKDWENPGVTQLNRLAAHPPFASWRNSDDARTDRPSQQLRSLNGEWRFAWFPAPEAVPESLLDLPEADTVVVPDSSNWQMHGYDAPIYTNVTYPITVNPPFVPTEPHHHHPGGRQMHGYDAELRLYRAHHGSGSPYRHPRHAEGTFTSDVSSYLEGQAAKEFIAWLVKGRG
On to B1, for which the relative cleavage efficiency result was “less than 3.0%”.

With B2, the relative cleavage efficiency result is “less than 3.0%”.

For B3, the relative cleavage efficiency result is reported as “less than 3.0%”.

B4: the relative cleavage efficiency result is “less than 3.0%”.

Regarding B5, the relative cleavage efficiency entry is given as “less than 3.0%”.

Turning to B6, the relative cleavage efficiency result is listed as “less than 3.0%”.

For the protein B7, the relative cleavage efficiency result was “less than 3.0%”.

Another series deals with fusion protein PRW.
Chain of fusion protein PRW (chain, as listed by the source): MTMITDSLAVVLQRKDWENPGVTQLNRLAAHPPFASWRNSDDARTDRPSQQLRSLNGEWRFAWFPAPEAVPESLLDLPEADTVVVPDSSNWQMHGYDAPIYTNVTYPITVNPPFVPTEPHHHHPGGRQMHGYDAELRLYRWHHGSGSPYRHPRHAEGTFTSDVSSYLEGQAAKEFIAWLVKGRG
Consider B1, for which the relative cleavage efficiency entry was “less than 3.0%”.

Take B2: the relative cleavage efficiency entry is given as “less than 3.0%”.

Turning to B3, the relative cleavage efficiency result is “less than 3.0%”.

B4: the relative cleavage efficiency entry was “less than 3.0%”.

For B5, the relative cleavage efficiency result is “less than 3.0%”.

As for B6, the relative cleavage efficiency entry is “less than 3.0%”.

Consider B7, for which the relative cleavage efficiency result was “less than 3.0%”.

Another series deals with fusion protein PRI.
Chain of fusion protein PRI (chain, as listed by the source): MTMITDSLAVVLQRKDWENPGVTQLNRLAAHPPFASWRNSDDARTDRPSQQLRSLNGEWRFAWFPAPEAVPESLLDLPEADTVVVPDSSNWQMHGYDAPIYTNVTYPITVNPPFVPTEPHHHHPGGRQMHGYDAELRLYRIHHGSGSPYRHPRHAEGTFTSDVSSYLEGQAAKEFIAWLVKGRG
On to B1, for which the relative cleavage efficiency result was “less than 3.0%”.

Regarding B2, the relative cleavage efficiency entry was “less than 3.0%”.

As for B3, the relative cleavage efficiency entry is recorded as “less than 3.0%”.

On to B4, for which the relative cleavage efficiency result is recorded as “less than 3.0%”.

In the case of B5, the relative cleavage efficiency entry was “less than 3.0%”.

B6: the relative cleavage efficiency result is reported as “less than 3.0%”.

B7: the relative cleavage efficiency result is listed as “less than 3.0%”.

In another series the target is fusion protein PRL.
Chain of fusion protein PRL (chain, as listed by the source): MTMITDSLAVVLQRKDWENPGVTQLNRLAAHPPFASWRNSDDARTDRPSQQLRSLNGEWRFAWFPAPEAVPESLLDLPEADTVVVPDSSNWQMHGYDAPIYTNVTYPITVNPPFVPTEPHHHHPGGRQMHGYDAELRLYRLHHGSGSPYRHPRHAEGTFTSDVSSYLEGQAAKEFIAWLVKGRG
For the protein B1, the relative cleavage efficiency result is “less than 3.0%”.

Turning to B2, the relative cleavage efficiency result is reported as “less than 3.0%”.

As to B3, the relative cleavage efficiency entry is “less than 3.0%”.

As to B4, the relative cleavage efficiency entry was “less than 3.0%”.

On to B5, for which the relative cleavage efficiency result is recorded as “less than 3.0%”.

Take B6: the relative cleavage efficiency result is “less than 3.0%”.

On to B7, for which the relative cleavage efficiency result is “less than 3.0%”.

The target in another series is fusion protein PRR.
Chain of fusion protein PRR (chain, as listed by the source): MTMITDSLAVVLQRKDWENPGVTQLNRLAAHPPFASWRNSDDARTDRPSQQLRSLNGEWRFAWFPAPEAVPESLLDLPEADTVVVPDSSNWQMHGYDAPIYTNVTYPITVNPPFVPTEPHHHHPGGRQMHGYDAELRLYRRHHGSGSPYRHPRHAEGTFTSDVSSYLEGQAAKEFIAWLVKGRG
For B1, the relative cleavage efficiency entry is “less than 3.0%”.

B2: the relative cleavage efficiency entry was “less than 3.0%”.

B3: the relative cleavage efficiency entry is “less than 3.0%”.

For B4, the relative cleavage efficiency entry is “less than 3.0%”.

B5: the relative cleavage efficiency result is “less than 3.0%”.

As for B6, the relative cleavage efficiency result is on record as “less than 3.0%”.

With B7, the relative cleavage efficiency result is reported as “less than 3.0%”.

The next series addresses fusion protein PRY.
B1: the relative cleavage efficiency result is “less than 3.0%”.

In the case of B2, the relative cleavage efficiency result is on record as “less than 3.0%”.

Regarding B3, the relative cleavage efficiency result is recorded as “less than 3.0%”.

With B4, the relative cleavage efficiency entry is listed as “less than 3.0%”.

As to B5, the relative cleavage efficiency result is given as “less than 3.0%”.

B6: the relative cleavage efficiency entry is listed as “less than 3.0%”.

Regarding B7, the relative cleavage efficiency result is given as “less than 3.0%”.

The target of a further series is fusion protein PRM.
Chain of fusion protein PRM (chain, as listed by the source): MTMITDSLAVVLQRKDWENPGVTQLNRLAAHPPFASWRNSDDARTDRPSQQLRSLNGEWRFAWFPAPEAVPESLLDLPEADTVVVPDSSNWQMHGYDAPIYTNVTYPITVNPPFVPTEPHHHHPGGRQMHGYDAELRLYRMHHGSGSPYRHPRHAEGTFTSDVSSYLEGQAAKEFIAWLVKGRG
Take B1: the relative cleavage efficiency result is “less than 3.0%”.

Take B2: the relative cleavage efficiency result is “less than 3.0%”.

Regarding B3, the relative cleavage efficiency entry was “less than 3.0%”.

Consider B4, for which the relative cleavage efficiency entry is given as “less than 3.0%”.

Regarding B5, the relative cleavage efficiency entry is on record as “less than 3.0%”.

B6: the relative cleavage efficiency entry was “less than 3.0%”.

As to B7, the relative cleavage efficiency entry was “less than 3.0%”.

The target of the next series is fusion protein PRF.
Chain of fusion protein PRF (chain, as listed by the source): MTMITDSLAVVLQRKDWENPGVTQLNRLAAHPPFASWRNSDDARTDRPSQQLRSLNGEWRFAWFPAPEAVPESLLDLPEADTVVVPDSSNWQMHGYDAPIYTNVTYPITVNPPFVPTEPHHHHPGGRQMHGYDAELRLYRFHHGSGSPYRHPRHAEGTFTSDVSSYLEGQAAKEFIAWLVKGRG
As to B1, the relative cleavage efficiency entry is given as “less than 3.0%”.

Take B2: the relative cleavage efficiency result was “less than 3.0%”.

On to B3, for which the relative cleavage efficiency result is listed as “less than 3.0%”.

As to B4, the relative cleavage efficiency result was “less than 3.0%”.

With B5, the relative cleavage efficiency entry is “less than 3.0%”.

Consider B6, for which the relative cleavage efficiency entry is on record as “less than 3.0%”.

Consider B7, for which the relative cleavage efficiency entry was “less than 3.0%”.

The next series has as its target fusion protein PRK.
On to B1, for which the relative cleavage efficiency entry is on record as “less than 3.0%”.

As to B2, the relative cleavage efficiency entry is recorded as “less than 3.0%”.

With B3, the relative cleavage efficiency result is reported as “less than 3.0%”.

For B4, the relative cleavage efficiency result was “less than 3.0%”.

On to B5, for which the relative cleavage efficiency entry is on record as “less than 3.0%”.

Take B6: the relative cleavage efficiency entry was “less than 3.0%”.

On to B7, for which the relative cleavage efficiency entry is reported as “less than 3.0%”.

Another series deals with fusion protein PRC.
Chain of fusion protein PRC (chain, as listed by the source): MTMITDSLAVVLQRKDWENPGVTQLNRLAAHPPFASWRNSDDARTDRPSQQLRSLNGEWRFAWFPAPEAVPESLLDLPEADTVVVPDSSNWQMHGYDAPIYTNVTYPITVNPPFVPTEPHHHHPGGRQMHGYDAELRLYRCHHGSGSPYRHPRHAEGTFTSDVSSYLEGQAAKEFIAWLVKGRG
With B1, the relative cleavage efficiency entry is “less than 3.0%”.

For B2, the relative cleavage efficiency entry is recorded as “less than 3.0%”.

With B3, the relative cleavage efficiency result is listed as “less than 3.0%”.

For the protein B4, the relative cleavage efficiency entry is given as “less than 3.0%”.

Regarding B5, the relative cleavage efficiency entry was “less than 3.0%”.

Consider B6, for which the relative cleavage efficiency result is on record as “less than 3.0%”.

As for B7, the relative cleavage efficiency result was “less than 3.0%”.

The target in a further series is fusion protein PRP.
B1: the relative cleavage efficiency result is “less than 3.0%”.

Regarding B2, the relative cleavage efficiency result is “less than 3.0%”.

On to B3, for which the relative cleavage efficiency entry is recorded as “less than 3.0%”.

Consider B4, for which the relative cleavage efficiency entry is “less than 3.0%”.

B5: the relative cleavage efficiency entry is “less than 3.0%”.

Regarding B6, the relative cleavage efficiency result is on record as “less than 3.0%”.

As for B7, the relative cleavage efficiency entry is on record as “less than 3.0%”.

The target of another series is fusion protein PRE.
Chain of fusion protein PRE (chain, as listed by the source): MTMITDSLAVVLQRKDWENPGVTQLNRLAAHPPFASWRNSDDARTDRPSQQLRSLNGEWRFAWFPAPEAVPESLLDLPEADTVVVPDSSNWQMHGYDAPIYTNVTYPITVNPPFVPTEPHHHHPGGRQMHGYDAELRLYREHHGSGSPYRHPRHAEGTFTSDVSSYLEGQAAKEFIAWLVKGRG
With B1, the relative cleavage efficiency entry was “less than 3.0%”.

For the protein B2, the relative cleavage efficiency entry is “less than 3.0%”.

With B3, the relative cleavage efficiency entry is recorded as “less than 3.0%”.

Consider B4, for which the relative cleavage efficiency entry is “less than 3.0%”.

As to B5, the relative cleavage efficiency result is “less than 3.0%”.

Turning to B6, the relative cleavage efficiency entry is listed as “less than 3.0%”.

For B7, the relative cleavage efficiency result was “less than 3.0%”.

For another series, the target named is fusion protein PRT.
Chain of fusion protein PRT (chain, as listed by the source): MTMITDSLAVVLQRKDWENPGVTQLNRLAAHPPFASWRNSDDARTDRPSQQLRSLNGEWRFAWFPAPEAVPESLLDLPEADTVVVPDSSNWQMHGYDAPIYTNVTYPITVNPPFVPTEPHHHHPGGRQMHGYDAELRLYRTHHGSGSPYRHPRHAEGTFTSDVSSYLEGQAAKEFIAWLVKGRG
On to B1, for which the relative cleavage efficiency result is reported as “less than 3.0%”.

Turning to B2, the relative cleavage efficiency result is “less than 3.0%”.

As for B3, the relative cleavage efficiency result is “less than 3.0%”.

Consider B4, for which the relative cleavage efficiency entry is given as “less than 3.0%”.

For B5, the relative cleavage efficiency entry is recorded as “less than 3.0%”.

Regarding B6, the relative cleavage efficiency entry is listed as “less than 3.0%”.

Regarding B7, the relative cleavage efficiency result is “less than 3.0%”.

A further series addresses fusion protein PRS.
As to B1, the relative cleavage efficiency result is on record as “less than 3.0%”.

Turning to B2, the relative cleavage efficiency entry is on record as “less than 3.0%”.

For B3, the relative cleavage efficiency entry is “less than 3.0%”.

In the case of B4, the relative cleavage efficiency entry is “less than 3.0%”.

For B5, the relative cleavage efficiency entry was “less than 3.0%”.

As for B6, the relative cleavage efficiency result is on record as “less than 3.0%”.

For the protein B7, the relative cleavage efficiency entry is on record as “less than 3.0%”.

Another series deals with fusion protein PRG.
Chain of fusion protein PRG (chain, as listed by the source): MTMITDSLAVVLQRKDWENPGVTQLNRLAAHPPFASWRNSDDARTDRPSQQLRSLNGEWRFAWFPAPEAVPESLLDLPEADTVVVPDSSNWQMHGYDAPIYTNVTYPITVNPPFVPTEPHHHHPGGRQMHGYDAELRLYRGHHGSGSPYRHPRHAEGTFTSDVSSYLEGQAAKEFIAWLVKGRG
As for B1, the relative cleavage efficiency entry is reported as “less than 3.0%”.

Take B2: the relative cleavage efficiency entry is given as “less than 3.0%”.

With B3, the relative cleavage efficiency result was “less than 3.0%”.

For the protein B4, the relative cleavage efficiency result is “less than 3.0%”.

In the case of B5, the relative cleavage efficiency result is recorded as “less than 3.0%”.

B6: the relative cleavage efficiency result is reported as “less than 3.0%”.

As for B7, the relative cleavage efficiency entry is on record as “less than 3.0%”.

The target in the next series is fusion protein PRN.
Chain of fusion protein PRN (chain, as listed by the source): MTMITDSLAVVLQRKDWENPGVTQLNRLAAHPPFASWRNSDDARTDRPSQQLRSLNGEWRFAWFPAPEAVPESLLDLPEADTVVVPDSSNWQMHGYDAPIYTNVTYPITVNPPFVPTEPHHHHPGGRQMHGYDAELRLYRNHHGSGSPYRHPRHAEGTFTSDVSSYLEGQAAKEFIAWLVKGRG
Turning to B1, the relative cleavage efficiency result is on record as “less than 3.0%”.

For B2, the relative cleavage efficiency entry is given as “less than 3.0%”.

On to B3, for which the relative cleavage efficiency result is on record as “less than 3.0%”.

With B4, the relative cleavage efficiency result was “less than 3.0%”.

As for B5, the relative cleavage efficiency entry was “less than 3.0%”.

On to B6, for which the relative cleavage efficiency entry was “less than 3.0%”.

For B7, the relative cleavage efficiency entry was “less than 3.0%”.

The values are drawn from patent publication US20070077617.
